Data published in patent US11629193B2, “EGFR binding molecules” (F-STAR BETA LIMITED, priority 2016, dated 2023).

Assays:
LL2.ova = assay: In vivo skin toxicity and tumour growth, syngeneic mouse tumour model LL2.ova; details: 250 μg intraperitoneally on days 3, 6 and 10; eight mice each
Experimental: Skin toxicity has been observed with known anti-EGFR therapies, resulting in skin rash, lesions etc. In order to determine the toxicity of anti-EGFR Fcabs and mAb^2 containing anti-EGFR Fcs, an in vivo study was conducted. […] The tumour cells (5×10^5 cells) were implanted subcutaneously in the flank of female C57B16 (Charles River) mice aged 6-8 weeks and the mice were randomly assigned to four cohorts of eight mice each. […] The tumour volumes were measured with electronic callipers at days 10, 12, 14, 17, 19, 20 and 21. At day 16 pictures of the mice were taken to illustrate the observed skin toxicity.

NCI-H1975 cells = assay: Cell proliferation, NCI-H1975 cells stimulated with HGF; format: cell-based; details: NCI-H1975, antibodies 300 nM with and without erlotinib (2 μM)
Experimental: NCI-H1975 (ATCC CRL-5908) is a non-small cell lung cancer (NSCLC) cell line which expresses constitutively active mutated EGFR L858R and EGFR T790M (Kobayashi et al 2005). These mutations are acquired secondary mutations known to confer resistance to EGFR tyrosine kinase inhibitor (TKI) therapies in NSCLC patients. The NCI-H1975 cell line also expresses c-Met. […] The same method was used as in the U87MG assay described above, except that the NCI-H1975 cells were stimulated with HGF. One day before the treatment, the medium used was changed from containing 10% FBS to containing no serum. Treatments were added at various concentrations (0.003-300 nM) in the presence of 80 ng/ml HGF and incubated for 3 days at 37° C.

HGF = HGF (Homo sapiens, UniProt P14210); assay: Free HGF in culture media of U87MG cells (HGF Human ELISA Kit); format: cell-based; set-up: examined in U87MG cells that secrete HGF; endogenous in cells; host or cells: U87MG; details: 30 nM, 4 days, compared to controls
Experimental: It was hypothesised that internalisation of HGF by anti-EGFR/HGF mAb^2 leads to reduced level of HGF in the system. To test this hypothesis, the change in level of free HGF caused by incubation with anti-EGFR/HGF mAb^2 was examined in U87MG cells that secrete HGF. U87MG cultures were incubated with different treatments at 30 nM for 4 days at 37° C. […] On day 4, the media from each cell culture were collected for HGF level analysis. HGF concentration was measured using HGF Human ELISA Kit (ThermoFisher, KAC2211) following the manufacturer's protocol. Using monoclonal anti-HGF antibodies, the free HGF in media was detected (free HGF was defined as HGF in the media which was bound by detection antibodies).

[1] = tested on: phosphorylation of c-Met and EGFR; assay: Western blot of receptor phosphorylation in U87MG cells; format: cell-based, human; details: 200 nM, 20 min
Experimental: (§1) Overnight cultures of the glioblastoma cell line U87MG (ATCC HTB-14) were moved from a medium with 10% FBS to a low serum medium with 0.1% FBS to optimise sensitivity to ligand stimulation. The cells were incubated overnight. […] Controls without antibody treatment were included, with and without growth factor stimulation. The treated cells were lysed using lysis buffer (10 mM Tris® pH7.5, 150 mM NaCl, 1 mM EDTA) comprising 1:100 protease inhibitor cocktail (Calbiochem, 539131) and 1:100 Phosphatase inhibitor cocktail (Calbiochem, 524625) and the lysates collected for analysis.
(§2) Lysate samples were subjected to standard western blotting analysis using a 4-12% Bis-Tris® protein gel (ThermoFisher, NP0322BOX) and transferred to a nitrocellulose membrane (ThermoFisher, IB301001). The membrane was blocked with 5% Marvel milk/TBST and then probed for phospho-c-Met using a rabbit monoclonal antibody specific for c-Met phosphorylated at Tyr1234/1235 (Cell Signaling, 3077), phospho-EGFR using a mouse monoclonal antibody specific for EGFR phosphorylated at Tyr1068 (Cell Signaling, 2236), phospho-MAPK using a mouse monoclonal antibody specific for p44/42 MAPK (ERK1/2) phosphorylated at Thr202/Tyr204 (Cell Signaling, 9106), and phospho-Akt using a rabbit monoclonal antibody specific for Akt phosphorylated at Ser473 (Cell Signaling, 9271). […]

[2] = tested on: phosphorylation of MAPK and Akt; assay: Western blot of downstream signalling in U87MG cells; format: cell-based, human; details: 200 nM (200+200 nM for combination), HGF and EGF present
Experimental: as §1, §2

HGF, sequence (P14210 32-728): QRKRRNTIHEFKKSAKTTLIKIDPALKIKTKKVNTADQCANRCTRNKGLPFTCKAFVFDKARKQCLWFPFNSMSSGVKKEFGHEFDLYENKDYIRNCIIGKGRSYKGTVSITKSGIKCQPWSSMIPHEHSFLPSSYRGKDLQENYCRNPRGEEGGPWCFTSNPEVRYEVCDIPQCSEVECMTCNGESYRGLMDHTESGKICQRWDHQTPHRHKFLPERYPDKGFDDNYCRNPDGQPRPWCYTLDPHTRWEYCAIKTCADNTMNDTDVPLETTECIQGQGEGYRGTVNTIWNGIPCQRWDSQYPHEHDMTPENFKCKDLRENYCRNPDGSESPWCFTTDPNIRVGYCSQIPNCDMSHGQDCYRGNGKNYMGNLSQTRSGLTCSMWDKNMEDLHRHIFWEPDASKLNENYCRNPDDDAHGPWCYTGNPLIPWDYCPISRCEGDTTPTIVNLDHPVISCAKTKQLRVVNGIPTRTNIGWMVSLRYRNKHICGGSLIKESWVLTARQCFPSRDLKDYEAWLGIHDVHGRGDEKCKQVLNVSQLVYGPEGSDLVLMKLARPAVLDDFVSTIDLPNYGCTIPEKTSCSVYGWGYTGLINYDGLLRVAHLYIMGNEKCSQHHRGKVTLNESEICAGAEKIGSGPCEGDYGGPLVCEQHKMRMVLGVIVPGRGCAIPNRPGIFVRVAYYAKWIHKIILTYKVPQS

9D9m2a: anti-mouse CTLA4 antibody: 9D9 VH in mouse IgG2a backbone, heavy chain SEQ ID NO: 52, light chain SEQ ID NO: 50 [Fcab 9D9m2a, reference compound]
Mice showing hair loss (LL2.ova): 0/8
Skin lesions (LL2.ova): 0/8

C#Cc1cccc(Nc2ncnc3cc(OCCOC)c(OCCOC)cc23)c1 [erlotinib, reference compound]
reduction of cell proliferation induced by HGF (NCI-H1975 cells): No effect

rilotumumab [reference compound]
concentration of free HGF in the media (HGF): significant decrease in the concentration of free HGF in the media
block of phosphorylation of c-Met by HGF [1]: able to block the phosphorylation of c-Met by HGF
block of phosphorylation of MAPK and Akt [2]: unable to block the phosphorylation of MAPK and Akt
